Laboratory results from a protein production outcome set (Wang et al. 2014).

Assay: label from the status in PepcDB records

| Sequence | protein production |
| --- | --- |
| MASRSASQASDALSQHGCPFSVRAKAFHGGRCMHELIGDITLSILFAWLLGLAAHFFRQPLILAYLIGGFVIGPFGLGWVKSENSISVISELGLIFMLFMIGLEIDLKKIIRAGPVILVAAGGQIAGGVLLGLAFFVGIGLSLGGGHFDALYLTVACALSSTVIIVKVLYEKRELDTLPGRITLGILVLQDIFAILFLAVQPSLADLQISVLLLSIARVVALVATALALSRYVLPWLFHRIARTPELVLLGALAWCFLIGEIAERLHLSREMGALVAGVSLSTFPYALDVTAKVTTLRDFFITLFFVALGMTIPIPNGSVIGLALAIAVFTLASRLLTTFLPLYLMKQGLRASLLPALNLAQISEFSLVVIQTGVAAGHIGTQTASAASFAFVLLAVLSTFVIMRSDPITRRAIGTLTKFGFRDLGQQQSGAEAAAEAGHGAVHRIVILGFFRAASALVSEIEQHTPELLKQISVIDFNPMVYRTLTERGMHVIYGDISNVDTLLHAGVAKAEIIILSVPDSLLKGATNERLVRHVRALNPNAQIVATADLLADVEAMYQAGADYVTVTRLADARELFEVIEAADNGLLSDKRAALDARLAERREVLP | failed |
| MASSSSSSEHKVFLSFRREDTGRTFVSHLYRSLDQKEIRTYKFENQQAGDGKRISSEVKQAINESRIAVVVISENYVSSVLCLDVLAKIIERLPLIKIETVFYEVDPGDLTRPTGKFADDFRRHEARENRRTVNRWRDALDQLVSITNSNFCSRNWEDDSKMIDDLIIRLINIYFSKYYTPDVDIIAETTVGLDASVLGLMTDIDMKYKLNSLSGSVESGFGLERYALEATSVMDDMSNESPSPTSDDSNGLVGMYRHKKAVYGLLDLESKNQVRTIGIWGFQGVGKTTLAECVFDDISSHFQHYCFLTNANKIYQNRISPSLLKHLTRRRSSEDIFDAIKPSLVNRKVLFVVDGVDATYNEQFNDAMKVTRWLGPGSRIIMTSRFKSSLKFGGAKYEMECLRYEEALQLFSLYAFKKTYPLIGFELFSIRAVHFAGRLPLSLKVLGSFLYDKDEESWKRTLHKLEASQDNDRRYVSNYIGAGEYLPRRQIELEQYVSPDEEEYSPSYIMSL | failed |
| MASTTRPAPTVGFDLDMTLIDSRPGIRACYVELSARTGTYVDADLAVTRLGPPLAEELANWFPAEEIEAVADLYREIYPAYAIEPTLALPGAREAVTAVRGAGGRAVVVTAKYEPNAKLHLAHLGIEPDAVIGGLWAEQKAVALREHDADVYVGDHVGDVRGARAAGARSVAVASGPCDAGELRAAGADVVLADLTAFPEWLAAYRDGEGDAEGLDAARA | failed |
| MASTVDSNFFSSVPALHSNLGLLSPDQIELAKILLENGQSHLFQQWPELGVDDKEKLAFFDQIARLNSSYPGGLAAYIKTAKELLADSKVGKNPYDGFSPSVPSGENLTFGTDNFIEMEKRGVVEARNAAFVLVAGGLGERLGYNGIKVALPRETTTGTCFLQHYIESILALQEASNKIDSDGSERDIPFIIMTSDDTHSRTLDLLELNSYFGMKPTQVHLLKQEKVACLDDNDARLALDPHNKYSIQTKPHGHGDVHSLLYSSGLLHKWLEAGLKWVLFFQDTNGLLFNAIPASLGVSATKQYHVNSLAVPRKAKEAIGGISKLTHVDGRSMVINVEYNQLDPLLRASGFPDGDVNCETGFSPFPGNINQLILELGPYKDELQKTGGAIKEFVNPKYKDSTKTAFKSSTRLECMMQDYPKTLPPTARVGFTVMDIWLAYAPVKNNPEDAAKVPKGNPYHSATSGEMAIYRANSLILQKAGVKVEEPVKQVLNGQEVEVWSRITWKPKWGMIFSDIKKKVSGNCEVSQRSTMAIKGRNVFIKDLSLDGALIVDSIDDAEVKLGGLIKNNGWTMESVDYKDTSVPEEIRIRGFRFNKVEQLEKKLTQPGKFSVED | failed |
| MASYHARQRDPLLDQNMQAMLERRGRELLGIGLLIVAFLFMLILGTYSPEDPGWMVATDEPAQNALGRIGAAISSTLMIIAGKGSWGLPIVAGAWGARFLLHRGEERALGRIVFAVIAIALGSIYAATHVPGSEWTHSFGLGGLFGDTVLGALLEILPLPAAYGLKLLSLLVGGGLVAMGLFVCGFDLRELRQVTQFLLVGLVVTYNAALQLAGRGSVQAAQLMQEKIRAHREGRAAVDAAAVRGEARAEAMPRPRSRFREPEPEPEPAPRMGFLSRLRAQAPEDDPEPVIEEAAWGRPATLRADTTRPAALRSEGLRAEPRHVEPAPAPAQPRTGLLARMPQIIRRVTDPEAELVEHALSDAAANAEGPTEDRIKARINDVIRSRVRQSTGPLSPIAAAIARREPPMARRRSGPAPMVATRRAPMELPPEPPVVAGAGEKIRFASGMVASRMPGAATARLAVSALEADAAPAHAPRLMAEAYDAYEACETGEPILTAREQLAYADEDEAAAYDEAYAAEEEVESYAAEEAAWLPHEDFDDSTDWAPEPAAPAAPMMAPAMAPKPAAAPAARAPAVRPPEAQPKPRFEEQETHYELPPLSLLACPSTIVRNTLSVDALKENARMLESVLEDYGVKGEIVDAQAGPVVTLYELEPAPGLKASRVIGLADDIARSMSALSARVSTVPGRTVIGIELPNVSREKVILREILAARDFGDSSMRLPLALGKDIAGRPVVANLAKMPHLLIAGTTGSGKSVAINTMILSLLYKLTPEECRLIMIDPKMLELSVYDGIPHLLSPVVTDPKKAVVALKWVVGEMEERYRKMSKLGVRNIEGYNGRVSEALEKGEMFKRTIQTGFDEDTGEPVFETEDLQPVRLPFIVVVVDEMADLMMVAGKEIEACIQRLAQMARASGIHLIMATQRPSVDVITGTIKANFPTRISFQVTSKIDSRTILGEQGAEQLLGMGDMLYMAGGAKITRIHGPFVSDEEVEEIVNHLKSFGPPKYMSGVVEGPEDDRADDIDAVLGLGGNTDSEDALYDQAVAIVAKDRKCSTSYIQRKLGIGYNKAARLVEQMEEQGVVTAANHVGKREILLPEQ | failed |
| MATAASNHYSLLTSSASIVHAEPPGGMQQGAGGYREAQSLVQGDYGALQSNGHPLSHAHQWITALSHGGGGGGGGGGGGGGGGGGGGGDGSPWSTSPLGQPDIKPSVVVQQGGRGDELHGPGALQQQHQQQQQQQQQQQQQQQQQQQQQRPPHLVHHAANHHPGPGAWRSAAAAAHLPPSMGASNGGLLYSQPSFTVNGMLGAGGQSAGLHHHGLRDAHDEPHHADHHPHPHSHPHQQPPPPPPPQGPPGHPGAHHDPHSDEDTPTSDDLEQFAKQFKQRRIKLGFTQADVGLALGTLYGNVFSQTTICRFEALQLSFKNMCKLKPLLNKWLEEADSSSGSPTSIDKIAAQGRKRKKRTSIEVSVKGALESHFLKCPKPSAQEITSLADSLQLEKEVVRVWFCNRRQKEKRMTPPGGTLPGAEDVYGGSRDTPPHHGVQTPVQ | failed |
| MATANEHLVAWLRDAHAMEEQAITMLTSQSSRLENYPELKTRIDRHLQETKDQAAMLERCLERLDGGTSSIKDISGKIVAFGQGLSGLFVSDEVVKGTLASYTFEHMEIASYRILIAAAEQAGDQETKRVCESILQQEIAMAEWLAQNAGEITRKFLERDQRDVTAKH | not failed |
| MATAPRPLREQYLHFQPISTRWHDNDIYGHVNNVTYYAFFDTAVNTYLIERGGLDIQGGEVIGLVVSSSCDYFAPVAFPQRIEMGLRVARLGNSSVQYELALFLEGQREACAAGRFVHVFVERRSSRPVAIPQELRDALAALQSSAQ | not failed |
| MATATTTKTKTKATKKTRAKKATKKRATPKKNLVIVESPAKAKTIEKYLGRNYKVVASVGHIRDLKKSSMSIDFENNYEPQYINIRGKGPLIKELKKEAKKAKKVFLASDPDREGEAISWHLSHILGLEPEDKNRVVFNEITKDAVKNAFAEPRAIDMDLVDAQQARRVLDRIVGYSISPLLWKKVKKGLSAGRVQSVALKLIIDRENEIKAFKPEEYWTIDGAFKKGAKKFQASFYGLDGKKLKLNNNDDVKDVLSRIISDDFNVDKVEKKERRRNAPLPYTTSSLQQDAANKINFRTRKTMMVAQQLYEGINLGSGAQGLITYMRTDSTRISPVAQNQAAEFITERYGSKYSKHGSKVKNSSAAQDAHEAIRPSNVFQTPESIAKYLDKDQLKLYTLIWNRFVASQMTAAVFDTMKVTLSQNGVIFTANGSQIKFDGYMAVYNDSDKNKMLPEMAEGDTIKKVVTTPEQHFTQTPARYSEATLIKTLEENGVGRPSTYAPTLDVIQRRYYVKLVAKRFEPTELGEIVNSLIVEFFPDIVDVKFTAEMEAKLDKVEIGKEQWQKVIDEFFKPFQKELEKAEEGIEKIQIKDEPAGFDCDLCGHPMVIKLGRYGKFYACSNFPDCHNTKAITKEIGVTCPTCGQGQVIERKTKRNRVFYGCDRYPDCEFTSWDIPIGRNCPKSGDYLVEKKVRGGGKQVICSNEECDYKESVIK | failed |
| MATDAPPPSKEEPPSQEEHRLPSAEEFSEVQQSAEFAELRRSFRSFAFPLTVAFVAWYLLYVLLSNYAGGFMGTKLFGNINVAFVFGIAQFVTTFLIAWWYSRHAAAKLDPKAEAIKTRMEGGA | failed |
| MATDTTVQLRAGWQGRFYEDFAVGDVYKHPYGRTVTETDNVWFTNLTMNANPMHFNAAYASGTEFDERLVNGLFVIALSVGMSVVDVSANATANLGYDDIQHHAPVFHGDTLFAESEVLSKRESESRPHVGMVTTELRTYTQDGELVLSLERTPMVRKRGLEHHHHHH | not failed |
| MATESSESEEEGKISGGNYKLIIDDDLREMGKNAAWSVSSYGLQPHLINIQFQKKVKLQLVVLYVDFKLDESYTPSKISIRAGDGFHNLKEIKSVELVKPTGWVCLSLSGTDPRETFCQESR | failed |
| MATISAKLVKELREKTGAGMMDCKKALTETDGDIDKAIDYLREKGIAKAAKKADRIAAEGLVHVETKGNDAVIVEINSETDFVARNEGFQELVKEIANQVLDTKAETVEALMETTLPNGKSVDERIKEAISTIGEKLSVRRFAIRTKTDNDAFGAYLHMGGRIGVLTVVEGSTDEEAARDVAMHIAAINPKYVSSEQVSEEEINHEREVLKQQALNEGKPENIVEKMVEGRLRKYLQEICAVDQDFVKNPDVTVEAFLKTKGGKLVDFVRYEVGEGMEKREENFADEVKGQMK | failed |
| MATLKVSDSVPAPSDDAEQLRTAFEGWGTNEDLIISILAHRSAEQRKVIRQAYHETYGEDLLKTLDKELSNDFERAILLWTLEPGERDALLANEATKRWTSSNQVLMEVACTRTSTQLLHARQAYHARYKKSLEEDVAHHTTGDFRKLLVSLVTSYRYEGDEVNMTLAKQEAKLVHEKIKDKHYNDEDVIRILSTRSKAQINATFNRYQDDHGEEILKSLEEGDDDDKFLALLRSTIQCLTRPELYFVDVLRSAINKTGTDEGALTRIVTTRAEIDLKVIGEEYQRRNSIPLEKAITKDTRGDYEKMLVALLGEDDA | not failed |
| MATNLKSTAKLVKPIQYDEVIEVERIFADPAFIEQHRQRILASFKDAKESALYHELTHIVIKDNLFSCAMNAIVGYFEFNIDEAELKNVMEGLKRDVIQGAEDNTVQAIAEKIIKKALVFNHLQKEWKVEITDEVVKNVISLYYEKTNQSVREYLDDKQKFEGVRTALLEERMVLETINHFKFHFNLTGQLPN | not failed |
| MATPFWYNAALKVLKPVYRWRIKKRAENEMRYQQECRERFGPFQQPQNRHALWFHAVSVGETNAAQPLIEYYLKLGHPVLVTNTTKTGQARAKSLFLKSPYLELFQAVYLPVDQIFLLKQFFELYQPKLLALVETELWPNLIDQAQHYGVPTFLINARLSEKSAQGYARVSALSNAMLSRLTGLLAQDQSTQQRFIGLGLAREKAQVVGNIKFDIDVPLLFVEQARRLQQQWQLAGRKIMVLASTHAPEEQQLLTALKTHLMADPDLLCIVVPRHPERFDEVFQICQNLQLDTARRSLEQPIQPETQVYLADSMGELWLWYALAQTAFVGGSLNEPGGGHNILEPMALKIPVVIGPRYFNFQTIVDEFRETEAIDIVQDATQAVRQLLHYVSTPNSADQIVDHAQSILQRNKGSLARHIHVLDQYLS | failed |
| MATPQDKLHTVRLFGTVAADGLTMLDGAPGVRFRLEDKDNTSKTVWVLYKGAVPDTFKPGVEVIIEGGLAPGEDTFKARTLMTKCPLEHHHHHH | not failed |
| MATRMTTIRRQTKMAIGQRIKYFRNRIGMTQKQLGEQLGFKGKTSDVRMAQYESEARVPKIDLVKQMSQIFDINTHALTVPDIDTHIGLMHTLFALEDMYGLKVKNVDGQPHLWLDSSISAPSSSVDEMFRAWMEQADKLENGEISKEEYDEWRYKYPELDTYQKRAKVPSQELSDYLVKELTKKEK | failed |
